Reference: patent publication US12390511B2, “Product and process for mucus viscosity normalization” (ORPRO THERAPEUTICS, INC., priority 2013, dated 2025)

Experiment: Compaction assay to assess liquefaction of human CF sputum
Conditions: 0.58 mM in diluent, n=6 per treatment; FIG. 2
Protocol: Compaction assay to assess liquefaction of human CF sputum. For all manipulations, CF sputum was handled under a microbiologic hood. rhTrx, r(Cys)hTrx or diluent alone (25 microliters), in relevant concentrations, was added to CF sputum (275 microliters) in a 1.5 ml Eppendorf conical tube and mixed by very brief vortexing. After incubation at 37 degrees C. for 30 min, samples were again briefly mixed and loaded into hematocrit tubes and sealed at both ends. After a 5 minute centrifugation in a hematocrit centrifuge, the percent solids (gel) and percent liquid was determined by direct linear measurement and expressed as percent liquid as follows: 100×liquid/(liquid+solids). For each condition, sputum from at least five different CF patients was measured in triplicate.
Comparison of efficacy with standard of care mucolytic agent (rhDNase). For these studies, relevant concentrations of rhTrx, r(Cys)hTrx and rhDNase were compared by incubation as described above. After 30 minutes, samples were assessed for changes in liquefaction of sputum (compaction assay) and alteration of viscoelasticity. In addition, synergy studies were performed. […] For each condition, sputum from at least five different CF patients were measured in triplicate. […]
Human CF sputum collection. Sputum was obtained from adult and pediatric patients with CF as determined by a health care provider. […]

B1: rhDNase: standard of care CF mucolytic Pulmozyme (rhDNase I; dornase alfa) (protein, UniProt P24855 23-282, looked up)
Deoxyribonuclease-1: LKIAAFNIQTFGETKMSNATLVSYIVQILSRYDIALVQEVRDSHLTAVGKLLDNLNQDAPDTYHYVVSEPLGRNSYKERYLFVYRPDQVSAVDSYYYDDGCEPCGNDTFNREPAIVRFFSRFTEVREFAIVPLHAAPGDAVAEIDALYDVYLDVQEKWGLEDVMLMGDFNAGCSYVRPSQWSSIRLWTSPTFQWLIPDSADTTATPTHCAYDRIVVAGMLLRGAVVPDSALPFNFQAAYGLSDQLAQAISDHYPVEVMLK
  liquefaction of patient sputum / mucus-normalizing potency at equimolar concentrations: more potent than equimolar amounts of NAC
